The target of assay [1] is human complement C1r, zymogen form (human) (UniProt P00736).
The target of assay [2] is Borrelia hermsii strain HS1 FbpC C-terminal domain, residues 212-374 (Borrelia hermsii strain HS1). Put plainly: SPR; FbpC-C, FbpC-C R248A or FbpC-C H252A immobilised by amine coupling on a CMD200 chip (1138.2, 975.2, 1082 RU); zymogen or active C1r injected, single-cycle five-fold dilution series 0.16 to 100 nM; Biacore T200, 25 °C, 30 μl/min; HBS-T (10 mM Hepes pH 7.3, 140 mM NaCl, 0.005% Tween 20) with 5 mM CaCl2; kinetic fits, triplicate.

The target in assay [3] is Borrelia hermsii strain HS1 FbpC C-terminal domain, residues 212-374, R248A (Borrelia hermsii strain HS1). The assay is described as above.
The target in assay [4] is Borrelia hermsii strain HS1 FbpC C-terminal domain, residues 212-374, H252A (Borrelia hermsii strain HS1). The description is as above.

In assay [1], “Borrelia hermsii strain HS1 FbpC C-terminal domain, residues 212-374, H252A (domain or fragment)” displayed a CP-specific complement ELISA (C4b deposition, 2% normal human serum), IC50 of 300 nM.
Turning to “Borrelia hermsii strain HS1 FbpC C-terminal domain, residues 212-374, R248A (domain or fragment)”, in assay [1], the CP hemolysis of presensitized sheep erythrocytes (2% normal human serum), IC50 came to 1200 nM and the CP-specific complement ELISA (C4b deposition, 2% normal human serum), IC50 came to 23 nM.
For “Borrelia hermsii strain HS1 FbpC C-terminal domain, residues 212-374 (domain or fragment)” the same measures were 320 nM and 8.6 nM.

B1: human complement C1r, zymogen form (enzyme)
chain: SIPIPQKLFGEVTSPLFPKPYPNNFETTTVITVPTGYRVKLVFQQFDLEPSEGCFYDYVKISADKKSLGRFCGQLGSPLGNPPGKKEFMSQGNKMLLTFHTDFSNEENGTIMFYKGFLAYYQAVDLDECASRSKSGEEDPQPQCQHLCHNYVGGYFCSCRPGYELQEDTHSCQAECSSELYTEASGYISSLEYPRSYPPDLRCNYSIRVERGLTLHLKFLEPFDIDDHQQVHCPYDQLQIYANGKNIGEFCGKQRPPDLDTSSNAVDLLFFTDESGDSRGWKLRYTTEIIKCPQPKTLDEFTIIQNLQPQYQFRDYFIATCKQGYQLIEGNQVLHSFTAVCQDDGTWHRAMPRCKIKDCGQPRNLPNGDFRYTTTMGVNTYKARIQYYCHEPYYKMQTRAGSRESEQGVYTCTAQGIWKNEQKGEKIPRCLPVCGKPVNPVEQRQRIIGGQKAKMGNFPWQVFTNIHGRGGGALLGDRWILTAAHTLYPKEHEAQSNASLDVFLGHTNVEELMKLGNHPIRRVSVHPDYRQDESYNFEGDIALLELENSVTLGPNLLPICLPDNDTFYDLGLMGYVSGFGVMEEKIAHDLRFVRLPVANPQACENWLRGKNRMDVFSQNMFCAGHPSLKQDACQGDSGGVFAVRDPNTDRWVATGIVSWGIGCSRGYGFYTKVLNYVDWIKKEMEEED
The Kd is a measure of binding affinity in units of concentration. A high value points to weaker binding. A word on the koff: it is the first-order rate constant of dissociation. Higher therefore signals a short-lived complex. As a reminder, the kon is the second-order rate constant of association. Lower therefore signals slower complex formation. In assay [2], B1 came in with a Kd of 1.2 nM, a koff of 5.4e-05 s⁻¹ and a kon of 44000 M⁻¹ s⁻¹. In addition, in assay [3], the Kd stood at 13 nM, the koff is 0.00063 s⁻¹ and the kon is 69000 M⁻¹ s⁻¹.

B2: human complement C1r, activated form (enzyme)
chain: SIPIPQKLFGEVTSPLFPKPYPNNFETTTVITVPTGYRVKLVFQQFDLEPSEGCFYDYVKISADKKSLGRFCGQLGSPLGNPPGKKEFMSQGNKMLLTFHTDFSNEENGTIMFYKGFLAYYQAVDLDECASRSKSGEEDPQPQCQHLCHNYVGGYFCSCRPGYELQEDTHSCQAECSSELYTEASGYISSLEYPRSYPPDLRCNYSIRVERGLTLHLKFLEPFDIDDHQQVHCPYDQLQIYANGKNIGEFCGKQRPPDLDTSSNAVDLLFFTDESGDSRGWKLRYTTEIIKCPQPKTLDEFTIIQNLQPQYQFRDYFIATCKQGYQLIEGNQVLHSFTAVCQDDGTWHRAMPRCKIKDCGQPRNLPNGDFRYTTTMGVNTYKARIQYYCHEPYYKMQTRAGSRESEQGVYTCTAQGIWKNEQKGEKIPRCLPVCGKPVNPVEQRQRIIGGQKAKMGNFPWQVFTNIHGRGGGALLGDRWILTAAHTLYPKEHEAQSNASLDVFLGHTNVEELMKLGNHPIRRVSVHPDYRQDESYNFEGDIALLELENSVTLGPNLLPICLPDNDTFYDLGLMGYVSGFGVMEEKIAHDLRFVRLPVANPQACENWLRGKNRMDVFSQNMFCAGHPSLKQDACQGDSGGVFAVRDPNTDRWVATGIVSWGIGCSRGYGFYTKVLNYVDWIKKEMEEED
In assay [2], B2 displayed a Kd of 0.3 nM, a koff of 1.4e-05 s⁻¹ and a kon of 48000 M⁻¹ s⁻¹. In addition, in assay [4], the Kd turned out to be 2.4 nM, the koff turned out to be 0.00012 s⁻¹ and the kon came out at 51000 M⁻¹ s⁻¹. In assay [3], this molecule gave a Kd of 0.19 nM, a koff of 9.4e-06 s⁻¹ and a kon of 45000 M⁻¹ s⁻¹.
